Measurements taken from publication PMC12501005.

T1: AflR-DBD (15-79) (Aspergillus flavus, UniProt P41765 15-79)
T1 sequence: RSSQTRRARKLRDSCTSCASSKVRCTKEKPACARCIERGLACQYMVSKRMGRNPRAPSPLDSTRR

T2: AflR 28-57 (Aspergillus flavus, UniProt P41765 28-57)
T2 chain: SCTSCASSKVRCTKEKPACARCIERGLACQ

T3: AflR 15-57 (Aspergillus flavus, UniProt P41765 15-57)
T3 chain: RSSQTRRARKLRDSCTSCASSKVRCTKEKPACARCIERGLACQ

T4: AflR 8-98 (Aspergillus flavus, UniProt P41765 8-98)
T4 sequence: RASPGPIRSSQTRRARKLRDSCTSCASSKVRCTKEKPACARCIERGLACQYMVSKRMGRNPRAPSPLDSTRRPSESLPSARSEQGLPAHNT

T5: AflR 15-69 (Aspergillus flavus, UniProt P41765 15-69)
T5 sequence: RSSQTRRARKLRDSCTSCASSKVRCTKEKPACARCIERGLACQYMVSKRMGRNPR

T6: AflR 26-79 (Aspergillus flavus, UniProt P41765 26-79)
T6 sequence: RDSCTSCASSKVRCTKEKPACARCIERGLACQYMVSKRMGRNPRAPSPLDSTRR

B1: vbs inverted repeat (GCG to CCG) (dsDNA)
DNA 1: ACCGACTCTCGGACACCGAGGCAGACCG
DNA 2: CGGTCTGCCTCGGTGTCCGAGAGTCGGT
B2: norA (dsDNA)
DNA 1: ACCGGGCTTTCGGAAAGCGATCAGCTTGT
DNA 2: ACAAGCTGATCGCTTTCCGAAAGCCCGGT
B3: vbs (dsDNA)
DNA 1: ACCGACTCTCGGACAGCGAGGCAGACCG
DNA 2: CGGTCTGCCTCGCTGTCCGAGAGTCGGT
B4: ver1 (dsDNA)
DNA 1: TCAGATATTTCGGTCTCCGAGGAAAGAT
DNA 2: ATCTTTCCTCGGAGACCGAAATATCTGA
B5: norA inverted repeat (GCG to CCG) (dsDNA)
DNA 1: ACCGGGCTTTCGGAAACCGATCAGCTTGT
DNA 2: ACAAGCTGATCGGTTTCCGAAAGCCCGGT

Assays:
AflR-DBD (15-79) [1] = molecular target: T1, AflR-DBD (15-79); assay: EMSA
AflR 28-57 = molecular target: T2, AflR 28-57; assay: EMSA
AflR 15-57 = molecular target: T3, AflR 15-57; assay: EMSA
AflR 8-98 = molecular target: T4, AflR 8-98; assay: FCS
AflR 15-69 = molecular target: T5, AflR 15-69; assay: FCS
AflR 26-79 = molecular target: T6, AflR 26-79; assay: FCS
AflR-DBD (15-79) [2] = molecular target: T1, AflR-DBD (15-79); assay: FCS

Row | Binder | binding result (AflR-DBD (15-79) [1]) | binding result (AflR 28-57) | binding result (AflR 15-57) | also measured
1 | B1 | binds | – | – | –
2 | B2 | – | no binding | no binding | –
3 | B3 | – | no binding | no binding | –
4 | B4 | – | no binding | no binding | Kd (AflR 8-98): 409 ± 137 nM; Kd (AflR 15-69): 1510 ± 250 nM; Kd (AflR 26-79): 4020 ± 594 nM; Kd (AflR-DBD (15-79) [2]): 401 ± 54.5 nM
5 | B5 | binds | – | – | –
